Measured values reported in the DeepSol protein solubility set.

assay: soluble on expression in E. coli; label from the status in PepcDB or PDB records

| Sequence | soluble on expression in E. coli |
| --- | --- |
| MSLSEEDLIENPLPENLLDKVIEGDAREVLKKIPDCSIHLMVTSPPYNVGKEYDEDMTLDEYLEFIEEIMKEVYRVLVWGGRACFNVANLGRKPYIPLHAYLIHLFEKIGFLIRGEIIWDKGEAVSGSSTAWGSWMSPVNPVLRDQHEYIIVMSKGDLKRRKPSDREAKSTITREEFLEFTRSVWKFPPESAKRVGHPAPFPEELPYRCIQLYTFKGDVVLDPFAGVGTTCVAAVKTGRHFVGIEINPEYVKKAEERVKDILSKPTLFEDHEGHHHHHH | soluble |
| MSLSELARRLNQCKKPVGDQGKVVVDDMNERHYELTGWGLDKIKIDKAYKMLDIGCGGGRTVNRLSKAAEEGEVYGIDYSSDCVRWASEYNKELIKEGRVHISEASVEKLPFEDNKFDVVTAVETIYFWPNVEENIKEVNRVLKKGGKFIIINEIYDDDKFRERNNEFAKNSNMKIYSPEKLKSLLKNAGYLNVEMEIKEENNWICYVSEKEGHHHHHH | soluble |
| MSLSFKGFKVVMLILLSTQSYASKLASSIVCDSTIENPCIVQDSKTQFSPVIRYREVASIADVYGGNITGINKFHLSGSEQPSEKGWEAIAESISRKMGAETKKVIVLDLRQESHGYLNGRAITLVSAYNWINLGKSNSQSTLDQENWLAGLRSRKIVNGVLTVPQYVAKQYSQGKSMVVSTVKNEEYYVYKKGFDYYRIFISDHRAPLDSEVDALVALIKNNPEDTWYHVHCRGGKGRTTTVFAMFDMLKNADKVSFEEIIARQASIPPFYNLMVTNREIPELTPYYEQRLQFLIHFYEFARQSLMGYSGTWSEWKKLNEGHHHHHH | soluble |
| MSLSFTGLEGTRVLVADDNFTSRAILKEVLESLRFDVTLAESGEEAVDLVQKTAEPFKVVLLDWRMPGLDGLACARHIRQLDLPVRPTILIITAYGREEVLGEIPSEIIDGVLLKPVARSLLLNTILDALPEYSSRPEQESRIIQIDTAQLRQELADTSVLVVEDNKINRQIAKELLEGVGVRVTLAGDGLEALALVENYDFDLIFMDIQMPRMDGLEACRRIRQLQHKKQPPVVAMTAHALAGDRETSLRAGMNDHITKPIDPDELYAALANWIKRNHAEGHHHHHH | soluble |
| MSLSHSAEDSRRRELGAFLRSRRERLTPSATGISTGLRRRTPGLRREEVAMIAGVGTTWYTWLEQGRDVRPSVEVLTALSGALRLDAAEKRHLFTLAGRQLPERRRIAAGKVEGPLLHMLQSLVLQPAYVVGPRWDVLAWNDAAVAIFGDYGQLEGDARNIIHGVFTDPHRRHLLADWEQVARATLAAFRAESARYVGDPDFERLIALMMRSSPEFREWWPQRDVVHRLSGMKHLRHPTAGAMVFEHMSLSIDDGSDMKLIVYTPLAEQNSIAKLQSLLDAILRKEDRLKGIITITTDPNSSSVDKLAAALEHHHHHH | soluble |
| MSLSHTANPCCSHPCQNRGVCMSVGFDQYKCDCTRTGFYGENCSTPEFLTRIKLFLKPTPNTVHYILTHFKGFWNVVNNIPFLRNAIMSYVLTSRSHLIDSPPTYNADYGYKSWEAFSNLSYYTRALPPVPDDCPTPLGVKGKKQLPDSNEIVEKLLLRRKFIPDPQGSNMMFAFFAQHFTHQFFKTDHKRGPAFTNGLGHGVDLNHIYGETLARQRKLRLFKDGKMKYQIIDGEMYPPTVKDTQAEMIYPPQVPEHLRFAVGQEVFGLVPGLMMYATIWLREHNRVCDVLKQEHPEWGDEQLFQTSRLILIGETIKIVIEDYVQHLSGYHFKLKFDPELLFNKQFQYQNRIAAEFNTLYHWHPLLPDTFQIHDQKYNYQQFIYNNSILLEHGITQFVESFTRQIAGRVAGGRNVPPAVQKVSQASIDQSRQMKYQSFNEYRKRFMLKPYESFEELTGEKEMSAELEALYGDIDAVELYPALLVEKPRPDAIFGETMVEVGAPFSLKGLMGNVICSPAYWKPSTFGGEVGFQIINTASIQSLICNNVKGCPFTSFSVPDPELIKTVTINASSSRSGLDDINPTVLLKERSTELEGHHHHHH | not soluble |
| MSLSHVLQELRDVRQASHKVSQGARVLFPCELLSALSLLQTSAQASYQAVVETGLGLARGLREQILKAAAILGVADPSGIYIQPEDEHRLDVVGRLFEAMLRDSCLYPQSRVWIGHLLVPVAKVALRDSCLLETDHHPVWRLLMLLVDACNGNKGEDPAEHALLMQVRETVETVVREFDDDVTLFQTQQAALSMHYEQYVAKTRNTQRHVAECEITEERRQQAQRVADDALKQCLLGHVLPQQIEHFLRRIWCAHVQQVALLNDDNGQALKAVLALGDALLVQWRQASEGSIPERPWLYEERAGILEAFCIAGMTLVEAEAGFANLQHVLAAATPQSSVIATSTQTQSFDTFISVPDTSATSELNTASPSYFRELPLGTWLDFIGIDGRIQSGQLSWVSPISGRLMFVNHRGRRLCVTAPEELSTLMCLGRLRLHRAGDSLMSEGHHHHHH | not soluble |
| MSLSKNVTYEGIYVENINVSNLNEKDLKEKLNEHYSDLLNNFKITFNYKDNFNETFSAKDLGFFFDINDLSNQVFSFGKNSNIFSNTIERLKLKSNPKYFQFKPESNSEVLSEKLSEISNKINKEKVEPTISFSNDSISATKEQIGYKLDLEKLTSEIVNDLNNSHDSLNCTINIPVEEIKPKLTQETVNNMVILGSYTTKLPSLTGGRTKNISNYLSKLNGTILMPGDIFSADKEGEDRTESNGYTYAPGYIGNKVVDILAGGICQGVTTLYNSVLYADLKIVERAPHSLPVTYAPIGRDATMASGVIDFKFQNNMNNPVIVQTYITSSGQVKSNIWGIKEDPGKEIVISVDQHGPKSSTTYKETYENGVLVKKEVLSKDKYNEGHHHHHH | soluble |
| MSLSKRSIPNVDWANQLENAIRQFVKEKLELIMREEIKNFLEIEQAGTPNMRNGYYQRNLDTQYGRIEGLLVPRDRNGEFQTQLFAPYQRHTGWLEEAIIRMYQSGMSTREIGKFIERILGSTYSPATISRITDVVKEDIEKWHARPLHQRYSVLYLDGLYVKLRRDTVEKEVIYVVLGVNEEGYREILDFFVGGQESAYVWQEILQQLYKRGVKEVLLGVFDGLPGLEEAFKAVYPKADVQRCVVHKVRNTLSRVRKKDQFEMAEDLKLIYRSPNKEIALEMFQQFQSKWSHKYPREVQSWANELDVLLTFMDYPSSIRSVIYTTNAIERTIKEIRKRLKPMNSLSSLEAAEKVVYLTIQDFNEKWAGRKLRGFAEAQEALQRMFEEREGHHHHHH | not soluble |
| MSLSKSDDGDSEESFSISVQSGFEAMSQELCIVMCLKDLTSIVDIKTSSRPAMIGSLTDGSTETFWESGDEDKNKTKNITINCVKGINARYVSVHVDNSRDLGNKVTSMTFLTGKAVEELCRIKQVDLDSRHIGWVTSELPGGDNQIIKIELKGPENTLRVRQVKVLGWKDGESTKIAGQISASVAQQRSCEAETLRVFRLITSQVFGKLISGDAEEGHHHHHH | soluble |
| MSLSKTYHFIGIKGSGMSALALMLHQMGHKVQGSDVEKYYFTQRGLEQAGITILPFDEKNLDGDMEIIAGNAFRPDNNVEIAYADQNGISYKRYHEFLGSFMRDFVSMGVAGAHGKTSTTGMLSHVLSHITDTSFLIGDGTGRGSANAKYFVFESDEYERHFMPYHPEYSIITNIDFDHPDYFTSLEDVFNAFNDYAKQITKGLFVYGEDAELRKITSDAPIYYYGFEAEGNDFVASDLLRSTTGSTFTVHFRGQNLGQFHIPTFGRHNIMNATAVIGLLYTAGFDLNLVREHLKTFAGVKRRFTEKIVNDTVIIDDFAHHPTEIIATLDAARQKYPSKEIVAVFQPHTFTRTIALLDDFAHALNQADAVYLAQIYGSAREVDHGDVKVEDLANKINKKHQVITVENVSPLLDHDNAVYVFMGAGDIQTYEYSFERLLSNLTSNVQEGHHHHHH | soluble |
| MSLSKVFTIGEILVEIMASKIGQPFDQPGIWNGPYPSGAPAIFIDQVTRLGVPCGIISCVGNDGFGDINIHRLAADGVDIRGISVLPLEATGSAFVTYHNSGDRDFIFNIKNAACGKLSAQHVDENILKDCTHFHIMGSSLFSFHMVDAVKKAVTIVKANGGVISFDPNIRKEMLDIPEMRDALHFVLELTDIYMPSEGEVLLLSPHSTPERAIAGFLEEGVKEVIVKRGNQGASYYSANEQFHVESYPVEEVDPTGAGDCFGGAWIACRQLGFDAHRALQYANACGALAVTRRGPMEGTSRLMEIETFIQRHDMSIREAAQEGHHHHHH | soluble |
| MSLSMSTIAKVAARAGVSPTTVSHVINHSDRVSKPLRERVEAAIKDLGYKPNPQAQSLRTGRTNIVAMLIPDIRNPFYPELVKAAQSELEVAGLDMLIFNTDVPGGQSQDHGREYLRQIGNKRVDGLIVGDFALHGMHDALMRVETPTVFIGNLPNHAVDCVRIDDFGGGYQMGAYLAGKGHRRIAHVTGPSFFAEAMSRADGFEQGLADHGATPDPGLRFEGSYLAPSGKAAAEWLLAGHGGDLPSAVFFGNYLMAAGALAEFYDRGIRIPDDFKVAVFGDQPQLEYVRPRLTRVGNAPAELARRATRMLLERINGTYEGEPRSEVVSCVLREFETEGHHHHHH | soluble |
| MSLSNIETVPASIEMKPNPTITVFERSPDGGRGLARDMPVRWALEEVGQPYHVRRLSFEAMKEASHLAYQPFGQIPSYEQGDLILFESGAIVMHIAQHHSGLLPEDQLRRARTVAWMFAALNTIEPSILNFTTVWLFERNEPWHEARLARTKEQLLKRLDELSAWLGDREWLEGSFSAADILMICVLRRLESSGILKDYGNLLAYVERGKARPAFKRAFDAQLAVFTAASKNEGHHHHHH | soluble |
| MSLSPAQLAAVRRSFRNGRASLTRRSLLRASAGGALAVGGLGALSACGIPAAGRTEGGVSAEDHSAEEKTINFSNWPEYIDVDDSGKRHPTLDAFAKRTGIQVKYTEDINDNDEFFGKIQPQLAAGQSTGRDLIVLTDWLAARMIRLGYVQKLDPSHLPHAFANLSDQFRAPDWDPGRAYSYPWQGISTVIAYNKKALDGVEVKSVSDLLDNPKLKGRVGFLTEMRDSVGMTMLDMGKDPAKFTDDDYDAVIARLQKAVDKGQIRRFTGNDYTSDLSKGDFAACIAWAGDIVQLQADNPDVGYVIPDSGYMTSTDNMLIPNKARHKTNAERLIDYYYELEPAAELAAYINYVSPVAGVQPYLAKIDKSAADNPLIVPDKAMQAKSHAFRSLSSKEETAYQQKFAKLTGAEGHHHHHH | soluble |
| MSLSQCQTLLSQINRRIESYENIPVFSFAQKLPLFDSNSTKLKLNSQTNEMMMELLSLVEQNKGKKILIVGHSDNTGSSSMNMTLSEQRALALRDWLIKRSDITVDNFITKGMGASEPVATNHTEAGREQNRRVEVLILPTQDRTRMTEPKPLEGHHHHHH | soluble |
| MSLSQSALSELLEAFRAGDGVDLICESVRVALQDLIQLEASERIGAAPYERTDARVSERNGHRPRVLTTKAGDVELRIPKLRKGSFFPVILEPRRRIDQALYAVVMEAYVHGVSTRSVDDLVEAMGVDAGISKSEVSRICAGLDEQVGAFRTRALDHTEFPYVYLDATYLNVRNTTGQVTSMAVVVATGIAADGSREVLGLDVGDSEDETFWRGFLTALKQRGLHGVQLVISDQHAGLVKALRRSFQGAGHQRCRVHFARNLLAHVPKSHGDMVAAVFRTIFAQPDAAAVSHAWDEVRDQLAKSFPKIGPLMDEAKAEVTAFTVFPRAHWQKIWSTNPLERSTRRSSDAPGWSGSEGHHHHHH | soluble |
| MSLSRLILIESNKNTRGTPWISIPVRNGVFEYDFYTDHEKAYELICWDDLLNGCWYPVTFFAENGTVSFTISAIDARPPYRIETLNSLTTALRLFEAEGKDKFSFDELNARRDTLEKYGRFESEAMQALWKKFDQVKDNPEERNKLFRERDRLEESGEAFTKEAKALIKEREQLFRKKVIWETEQASQHPSLVGLFILKMKVENARKDEDVTPYLEAFQKVYASRYPEHPYTREMQMFIDNNQPKTGNRFIDFSAPDLNGNMVQLSEQIRGKVALIDLWASWCGPCRTTSKQLIPIYEKYKDRGFTVIGVAREQNSDIRMREAIRKDGYPWLNLIELNDVQQIWSKYRIPNAAGGTFLVNAQGIILAVNPTAEEVERILQKELEGHHHHHH | not soluble |
| MSLSSLDAVLSQDLIVADGPAVEVGDSLEVAYTGWLFQNHVLGQVFDSTANKDKLLRLKLGSGKVIKGWEDGMLGMKKGGKRLLIVPPACAVGSEGVIGWTQATDSILVFEVEVRRVKFAREGHHHHHH | not soluble |
